# Measurements from paper PMC3069497.
# T1: Peptide C (bovine)
# T1 sequence (peptide): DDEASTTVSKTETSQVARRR
# Key:
# [1] = biological target: bovine rhodopsin, photoactivated (Rho*) (bovine) (UniProt P02699)
# Peptide C (bovine) = biological target: T1, Peptide C (bovine)
# [2] = biological target: bovine rhodopsin, photoactivated (Rho*) (bovine) (UniProt P02699); remark: listed apart in the source
# Sequence of UniProt P02699 (P02699 whole entry): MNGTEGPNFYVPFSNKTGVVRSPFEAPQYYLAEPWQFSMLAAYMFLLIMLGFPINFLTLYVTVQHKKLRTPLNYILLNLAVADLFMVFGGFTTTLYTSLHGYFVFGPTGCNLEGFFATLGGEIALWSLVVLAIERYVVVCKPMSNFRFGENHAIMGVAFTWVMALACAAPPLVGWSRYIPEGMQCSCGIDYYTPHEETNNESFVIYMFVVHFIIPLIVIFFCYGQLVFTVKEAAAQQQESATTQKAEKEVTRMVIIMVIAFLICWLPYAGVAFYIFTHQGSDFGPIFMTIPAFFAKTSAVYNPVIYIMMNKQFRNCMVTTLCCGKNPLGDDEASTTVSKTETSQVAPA
Binder,KM of ROS (Rho*) phosphorylation [1] [µM],KM of peptide C phosphorylation (Peptide C (bovine)) [µM],decrease of the magnitude of the fluorescence change of Meta II decay [2] [%]
"bovine GRK1 C-terminally truncated at residue 535 and tagged with hexahistidine (GRK1_(535)H6), wild type (enzyme) MDFGSLETVVANSAFIAARGSFDASSGPASRDRKYLARLKLPPLSKCEALRESLDLGFEGMCLEQPIGKRLFQQFLRTHEQHGPALQLWKDIEDYDTADDALRPQKAQALRAAYLEPQAQLFCSFLDAETVARARAGAGDGLFQPLLRAVLAHLGQAPFQEFLDSLYFLRFLQWKWLEAQPMGEDWFLDFRVLGRGGFGEVFACQMKATGKLYACKKLNKKRLKKRKGYQGAMVEKKILAKVHSRFIVSLAYAFETKTDLCLVMTIMNGGDIRYHIYNVDEDNPGFQEPRAIFYTAQIVSGLEHLHQRNIIYRDLKPENVLLDDDGNVRISDLGLAVELKAGQTKTKGYAGTPGFMAPELLLGEEYDFSVDYFALGVTLYEMIAARGPFRARGEKVENKELKQRVLEQAVTYPDKFSPASKDFCEALLQKDPEKRLGFRDGSCDGLRTHPLFRDISWRQLEAGMLTPPFVPDSRTVYAKNIQDVGAFSTVKGVAFEKADTEFFQEFASGTCPIPWQEEMIETGVFGDLNVWRPDG",3.4,320,35
GRK1_(535)H6 E7A (enzyme) MDFGSLATVVANSAFIAARGSFDASSGPASRDRKYLARLKLPPLSKCEALRESLDLGFEGMCLEQPIGKRLFQQFLRTHEQHGPALQLWKDIEDYDTADDALRPQKAQALRAAYLEPQAQLFCSFLDAETVARARAGAGDGLFQPLLRAVLAHLGQAPFQEFLDSLYFLRFLQWKWLEAQPMGEDWFLDFRVLGRGGFGEVFACQMKATGKLYACKKLNKKRLKKRKGYQGAMVEKKILAKVHSRFIVSLAYAFETKTDLCLVMTIMNGGDIRYHIYNVDEDNPGFQEPRAIFYTAQIVSGLEHLHQRNIIYRDLKPENVLLDDDGNVRISDLGLAVELKAGQTKTKGYAGTPGFMAPELLLGEEYDFSVDYFALGVTLYEMIAARGPFRARGEKVENKELKQRVLEQAVTYPDKFSPASKDFCEALLQKDPEKRLGFRDGSCDGLRTHPLFRDISWRQLEAGMLTPPFVPDSRTVYAKNIQDVGAFSTVKGVAFEKADTEFFQEFASGTCPIPWQEEMIETGVFGDLNVWRPDG,13,410,
GRK1_(535)H6 A11E (enzyme) MDFGSLETVVENSAFIAARGSFDASSGPASRDRKYLARLKLPPLSKCEALRESLDLGFEGMCLEQPIGKRLFQQFLRTHEQHGPALQLWKDIEDYDTADDALRPQKAQALRAAYLEPQAQLFCSFLDAETVARARAGAGDGLFQPLLRAVLAHLGQAPFQEFLDSLYFLRFLQWKWLEAQPMGEDWFLDFRVLGRGGFGEVFACQMKATGKLYACKKLNKKRLKKRKGYQGAMVEKKILAKVHSRFIVSLAYAFETKTDLCLVMTIMNGGDIRYHIYNVDEDNPGFQEPRAIFYTAQIVSGLEHLHQRNIIYRDLKPENVLLDDDGNVRISDLGLAVELKAGQTKTKGYAGTPGFMAPELLLGEEYDFSVDYFALGVTLYEMIAARGPFRARGEKVENKELKQRVLEQAVTYPDKFSPASKDFCEALLQKDPEKRLGFRDGSCDGLRTHPLFRDISWRQLEAGMLTPPFVPDSRTVYAKNIQDVGAFSTVKGVAFEKADTEFFQEFASGTCPIPWQEEMIETGVFGDLNVWRPDG,8.8,310,
GRK1_(535)H6 V10A (enzyme) MDFGSLETVAANSAFIAARGSFDASSGPASRDRKYLARLKLPPLSKCEALRESLDLGFEGMCLEQPIGKRLFQQFLRTHEQHGPALQLWKDIEDYDTADDALRPQKAQALRAAYLEPQAQLFCSFLDAETVARARAGAGDGLFQPLLRAVLAHLGQAPFQEFLDSLYFLRFLQWKWLEAQPMGEDWFLDFRVLGRGGFGEVFACQMKATGKLYACKKLNKKRLKKRKGYQGAMVEKKILAKVHSRFIVSLAYAFETKTDLCLVMTIMNGGDIRYHIYNVDEDNPGFQEPRAIFYTAQIVSGLEHLHQRNIIYRDLKPENVLLDDDGNVRISDLGLAVELKAGQTKTKGYAGTPGFMAPELLLGEEYDFSVDYFALGVTLYEMIAARGPFRARGEKVENKELKQRVLEQAVTYPDKFSPASKDFCEALLQKDPEKRLGFRDGSCDGLRTHPLFRDISWRQLEAGMLTPPFVPDSRTVYAKNIQDVGAFSTVKGVAFEKADTEFFQEFASGTCPIPWQEEMIETGVFGDLNVWRPDG,21,390,
GRK1_(535)H6 I16A (enzyme) MDFGSLETVVANSAFAAARGSFDASSGPASRDRKYLARLKLPPLSKCEALRESLDLGFEGMCLEQPIGKRLFQQFLRTHEQHGPALQLWKDIEDYDTADDALRPQKAQALRAAYLEPQAQLFCSFLDAETVARARAGAGDGLFQPLLRAVLAHLGQAPFQEFLDSLYFLRFLQWKWLEAQPMGEDWFLDFRVLGRGGFGEVFACQMKATGKLYACKKLNKKRLKKRKGYQGAMVEKKILAKVHSRFIVSLAYAFETKTDLCLVMTIMNGGDIRYHIYNVDEDNPGFQEPRAIFYTAQIVSGLEHLHQRNIIYRDLKPENVLLDDDGNVRISDLGLAVELKAGQTKTKGYAGTPGFMAPELLLGEEYDFSVDYFALGVTLYEMIAARGPFRARGEKVENKELKQRVLEQAVTYPDKFSPASKDFCEALLQKDPEKRLGFRDGSCDGLRTHPLFRDISWRQLEAGMLTPPFVPDSRTVYAKNIQDVGAFSTVKGVAFEKADTEFFQEFASGTCPIPWQEEMIETGVFGDLNVWRPDG,9.5,220,
GRK1_(535)H6 L6A (enzyme) MDFGSAETVVANSAFIAARGSFDASSGPASRDRKYLARLKLPPLSKCEALRESLDLGFEGMCLEQPIGKRLFQQFLRTHEQHGPALQLWKDIEDYDTADDALRPQKAQALRAAYLEPQAQLFCSFLDAETVARARAGAGDGLFQPLLRAVLAHLGQAPFQEFLDSLYFLRFLQWKWLEAQPMGEDWFLDFRVLGRGGFGEVFACQMKATGKLYACKKLNKKRLKKRKGYQGAMVEKKILAKVHSRFIVSLAYAFETKTDLCLVMTIMNGGDIRYHIYNVDEDNPGFQEPRAIFYTAQIVSGLEHLHQRNIIYRDLKPENVLLDDDGNVRISDLGLAVELKAGQTKTKGYAGTPGFMAPELLLGEEYDFSVDYFALGVTLYEMIAARGPFRARGEKVENKELKQRVLEQAVTYPDKFSPASKDFCEALLQKDPEKRLGFRDGSCDGLRTHPLFRDISWRQLEAGMLTPPFVPDSRTVYAKNIQDVGAFSTVKGVAFEKADTEFFQEFASGTCPIPWQEEMIETGVFGDLNVWRPDG,12,280,
GRK1_(535)H6 F15A (enzyme) MDFGSLETVVANSAAIAARGSFDASSGPASRDRKYLARLKLPPLSKCEALRESLDLGFEGMCLEQPIGKRLFQQFLRTHEQHGPALQLWKDIEDYDTADDALRPQKAQALRAAYLEPQAQLFCSFLDAETVARARAGAGDGLFQPLLRAVLAHLGQAPFQEFLDSLYFLRFLQWKWLEAQPMGEDWFLDFRVLGRGGFGEVFACQMKATGKLYACKKLNKKRLKKRKGYQGAMVEKKILAKVHSRFIVSLAYAFETKTDLCLVMTIMNGGDIRYHIYNVDEDNPGFQEPRAIFYTAQIVSGLEHLHQRNIIYRDLKPENVLLDDDGNVRISDLGLAVELKAGQTKTKGYAGTPGFMAPELLLGEEYDFSVDYFALGVTLYEMIAARGPFRARGEKVENKELKQRVLEQAVTYPDKFSPASKDFCEALLQKDPEKRLGFRDGSCDGLRTHPLFRDISWRQLEAGMLTPPFVPDSRTVYAKNIQDVGAFSTVKGVAFEKADTEFFQEFASGTCPIPWQEEMIETGVFGDLNVWRPDG,11,350,
GRK1_(535)H6 N12A (enzyme) MDFGSLETVVAASAFIAARGSFDASSGPASRDRKYLARLKLPPLSKCEALRESLDLGFEGMCLEQPIGKRLFQQFLRTHEQHGPALQLWKDIEDYDTADDALRPQKAQALRAAYLEPQAQLFCSFLDAETVARARAGAGDGLFQPLLRAVLAHLGQAPFQEFLDSLYFLRFLQWKWLEAQPMGEDWFLDFRVLGRGGFGEVFACQMKATGKLYACKKLNKKRLKKRKGYQGAMVEKKILAKVHSRFIVSLAYAFETKTDLCLVMTIMNGGDIRYHIYNVDEDNPGFQEPRAIFYTAQIVSGLEHLHQRNIIYRDLKPENVLLDDDGNVRISDLGLAVELKAGQTKTKGYAGTPGFMAPELLLGEEYDFSVDYFALGVTLYEMIAARGPFRARGEKVENKELKQRVLEQAVTYPDKFSPASKDFCEALLQKDPEKRLGFRDGSCDGLRTHPLFRDISWRQLEAGMLTPPFVPDSRTVYAKNIQDVGAFSTVKGVAFEKADTEFFQEFASGTCPIPWQEEMIETGVFGDLNVWRPDG,20,500,
GRK1_(535)H6 V9A (enzyme) MDFGSLETAVANSAFIAARGSFDASSGPASRDRKYLARLKLPPLSKCEALRESLDLGFEGMCLEQPIGKRLFQQFLRTHEQHGPALQLWKDIEDYDTADDALRPQKAQALRAAYLEPQAQLFCSFLDAETVARARAGAGDGLFQPLLRAVLAHLGQAPFQEFLDSLYFLRFLQWKWLEAQPMGEDWFLDFRVLGRGGFGEVFACQMKATGKLYACKKLNKKRLKKRKGYQGAMVEKKILAKVHSRFIVSLAYAFETKTDLCLVMTIMNGGDIRYHIYNVDEDNPGFQEPRAIFYTAQIVSGLEHLHQRNIIYRDLKPENVLLDDDGNVRISDLGLAVELKAGQTKTKGYAGTPGFMAPELLLGEEYDFSVDYFALGVTLYEMIAARGPFRARGEKVENKELKQRVLEQAVTYPDKFSPASKDFCEALLQKDPEKRLGFRDGSCDGLRTHPLFRDISWRQLEAGMLTPPFVPDSRTVYAKNIQDVGAFSTVKGVAFEKADTEFFQEFASGTCPIPWQEEMIETGVFGDLNVWRPDG,18,350,
GRK1_(535)H6 A18E (enzyme) MDFGSLETVVANSAFIAERGSFDASSGPASRDRKYLARLKLPPLSKCEALRESLDLGFEGMCLEQPIGKRLFQQFLRTHEQHGPALQLWKDIEDYDTADDALRPQKAQALRAAYLEPQAQLFCSFLDAETVARARAGAGDGLFQPLLRAVLAHLGQAPFQEFLDSLYFLRFLQWKWLEAQPMGEDWFLDFRVLGRGGFGEVFACQMKATGKLYACKKLNKKRLKKRKGYQGAMVEKKILAKVHSRFIVSLAYAFETKTDLCLVMTIMNGGDIRYHIYNVDEDNPGFQEPRAIFYTAQIVSGLEHLHQRNIIYRDLKPENVLLDDDGNVRISDLGLAVELKAGQTKTKGYAGTPGFMAPELLLGEEYDFSVDYFALGVTLYEMIAARGPFRARGEKVENKELKQRVLEQAVTYPDKFSPASKDFCEALLQKDPEKRLGFRDGSCDGLRTHPLFRDISWRQLEAGMLTPPFVPDSRTVYAKNIQDVGAFSTVKGVAFEKADTEFFQEFASGTCPIPWQEEMIETGVFGDLNVWRPDG,6.1,410,
